The target in this experiment is recombinant human DLL4 (hDLL4) (human, UniProt Q9NR61 27-524). Briefly: Biacore.
recombinant human DLL4 (hDLL4), sequence (Q9NR61 27-524): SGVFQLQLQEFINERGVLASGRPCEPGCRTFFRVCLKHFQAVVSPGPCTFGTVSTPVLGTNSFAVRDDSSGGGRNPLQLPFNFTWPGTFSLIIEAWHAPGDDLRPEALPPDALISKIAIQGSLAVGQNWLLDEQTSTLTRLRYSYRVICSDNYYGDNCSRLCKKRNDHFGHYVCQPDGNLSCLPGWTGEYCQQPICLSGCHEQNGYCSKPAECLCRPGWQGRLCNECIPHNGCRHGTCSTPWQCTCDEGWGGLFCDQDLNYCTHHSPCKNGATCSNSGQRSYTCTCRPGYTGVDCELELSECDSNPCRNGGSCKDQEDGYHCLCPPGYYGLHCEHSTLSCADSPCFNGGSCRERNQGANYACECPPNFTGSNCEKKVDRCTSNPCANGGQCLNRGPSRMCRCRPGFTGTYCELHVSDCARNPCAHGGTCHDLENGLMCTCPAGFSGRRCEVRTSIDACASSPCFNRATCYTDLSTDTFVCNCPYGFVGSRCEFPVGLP

B1: Notch-1 Fc (rhNotch1-Fc) (Fc fusion)
chain: ARGPRCSQPGETCLNGGKCEAANGTEACVCGGAFVGPRCQDPNPCLSTPCKNAGTCHVVDRRGVADYACSCALGFSGPLCLTPLDNACLTNPCRNGGTCDLLTLTEYKCRCPPGWSGKSCQQADPCASNPCANGGQCLPFEASYICHCPPSFHGPTCRQDVNECGQKPGLCRHGGTCHNEVGSYRCVCRATHTGPNCERPYVPCSPSPCQNGGTCRPTGDVTHECACLPGFTGQNCEENIDDCPGNNCKNGGACVDGVNTYNCRCPPEWTGQYCTEDVDECQLMPNACQNGGTCHNTHGGYNCVCVNGWTGEDCSENIDDCASAACFHGATCHDRVASFYCECPHGRTGLLCHLNDACISNPCNEGSNCDTNPVNGKAICTCPSGYTGPACSQDVDECSLGANPCEHAGKCINTLGSFECQCLQGYTGPRCEIDVNECVSNPCQNDATCLDQIGEFQCICMPGYEGVHCEVNTDECASSPCLHNGRCLDKINEFQCECPTGFTGHLCQ
On to B1, for which the Kd is 19.9 nM.

Broadly, the Kd is the equilibrium constant for the complex coming apart.

The values are drawn from US20150315277A1 (published 2015).
